Usually Kd stands for a measure of binding affinity in units of concentration. What is called koff is the first-order rate constant of dissociation. As a reminder, the kon is the second-order rate constant of association.

Assay [1] addresses recombinant human CCL20 (R&D Systems, #360-MP-025/CF) (human) (UniProt P78556). The experiment in a line: cell-based or functional assay.
For assay [2] the target is unchanged. The assay is described as follows: SPR (Biacore): antibody captured on anti-human Fc, 100 nM chemokine injected; ratio = chemokine binding level over antibody capture level.
Assay [3] shares this target. The assay is described as follows: SPR (Biacore), antibody captured by anti-human Fc, human CCL20 injected (monovalent format), 1:1 Langmuir, average of two experiments. In general terms: In SPR one partner is held on a chip, and binding of the other changes the refractive index at the surface.

Changes are numbered by the printed parent chain.

Sequence of recombinant human CCL20 (R&D Systems, #360-MP-025/CF) (human) (P78556 other isoform, or with tags, fused parts or gaps limits assumed): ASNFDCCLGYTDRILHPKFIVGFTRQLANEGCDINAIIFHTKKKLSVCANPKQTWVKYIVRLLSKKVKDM

B1: humanized anti-human CCL20 antibody 36LK3/36HC2 (antibody, human IgG1, kappa, V domains shown)
VH: QVQLVQSGAEVKKPGASVKVSCKASGYTFTNYWMHWVRQAPGQGLEWMGVIDPSDSYTTYAQKFQGRVTMTVDTSTSTVYMELSSLRSEDTAVYYCARGNYGVDYAMDYWGQGTLVTVSS
VL: DIQMTQSPSSLSASVGDRVTITCGASENIYGALNWYQRKPGKAPKLLIYGATNLADGVPSRFSGSGSGRDYTLTISSLQPEDFATYYCQNVLITPYTFGQGTKLEIKR
As to B1, in assay [1], the IC50, chemotaxis assay, Assay-1 worked out at 0.65 nM; the IC50, chemotaxis assay, Assay-2 was found to be 1.09 nM; the IC50, chemotaxis assay, Assay-3 was determined as 1.3 nM; the IC50, chemotaxis assay, Average amounted to 1.01 nM. In assay [1], the IC90, chemotaxis assay, Assay-1 is 3.55 nM; the IC90, chemotaxis assay, Assay-2 is 3.35 nM; the IC90, chemotaxis assay, Assay-3 came out at 6.79 nM; the IC90, chemotaxis assay, Average is 4.56 nM. Also, in assay [1], the IC95, chemotaxis assay, Assay-1 turned out to be 7.59 nM; the IC95, chemotaxis assay, Assay-2 turned out to be 5.41 nM; the IC95, chemotaxis assay, Assay-3 came to 13.9 nM; the IC95, chemotaxis assay, Average stood at 8.97 nM. Also, the ReqCk/ReqAb ratio in assay [2] was found to be 0.143. In addition, in assay [3], the Kd amounted to 0.07 nM, the koff worked out at 0.00117 s⁻¹ and the kon was 1.66e+07 M⁻¹ s⁻¹.

B2: humanized anti-human CCL20 antibody 36LC3/36HC2 (antibody, human IgG1, kappa, V domains shown)
VH: B1 VH
VL: B1 VL with G24R, R38Q, D70Q, T72S, Q100G
Consider B2, for which, in assay [1], the IC50, chemotaxis assay, Assay-1 came to 0.9 nM; the IC50, chemotaxis assay, Assay-2 worked out at 1.26 nM; the IC50, chemotaxis assay, Assay-3 stood at 1.2 nM; the IC50, chemotaxis assay, Average was 1.12 nM. In assay [1], the IC90, chemotaxis assay, Assay-1 came out at 4.64 nM; the IC90, chemotaxis assay, Assay-2 was 5.82 nM; the IC90, chemotaxis assay, Assay-3 was 5.3 nM; the IC90, chemotaxis assay, Average was 5.25 nM. Also, in assay [1], the IC95, chemotaxis assay, Assay-1 was determined as 11.8 nM; the IC95, chemotaxis assay, Assay-2 was more than 66.8 nM; the IC95, chemotaxis assay, Assay-3 came to 10.3 nM. In assay [2], the ReqCk/ReqAb ratio came out at 0.156. Moreover, in assay [3], the Kd came to 0.044 nM, the off-rate (koff) was determined as 0.00061 s⁻¹ and the kon was 1.45e+07 M⁻¹ s⁻¹.

B3: mouse anti-human CCL20 monoclonal antibody 36F7C10 (antibody, V domains shown)
VH: QVQLQQPGAELVKPGASVKMSCKASGYTFTNYWMHWVKQRPGQGLEWIGVIDPSDSYTTYNQKFKGKATLTVDTSSSTAYMQLSSLTSEDSAVYYCTRGNYGVDYAMDYWGQGTSVTVSS
VL: DIQMTQSPASLSASVGETVTITCGASENIYGALNWYQRKQGKSPQLLIYGATNLADGMSSRFSGSGSGRQYSLKISSLHPDDVATYYCQNVLITPYTFGGGTKLEIK
Take B3: in assay [1], the IC50, chemotaxis of human CCR6-transduced B300.19 cells toward 10 nM human CCL20 stood at 1.7 nM; the IC90, chemotaxis of human CCR6-transduced B300.19 cells toward 10 nM human CCL20 amounted to 3.94 nM; the IC95, chemotaxis of human CCR6-transduced B300.19 cells toward 10 nM human CCL20 came out at 7.68 nM.

B4: chimeric 36F7C10 antibody (36F7C10-hFc) (antibody, V domains shown)
VH: B3 VH
VL: B3 VL
On to B4, for which, in assay [1], the IC50, chemotaxis of human CCR6-transduced B300.19 cells toward 10 nM human CCL20 is 1.44 nM; the IC90, chemotaxis of human CCR6-transduced B300.19 cells toward 10 nM human CCL20 was 3.51 nM; the IC95, chemotaxis of human CCR6-transduced B300.19 cells toward 10 nM human CCL20 worked out at 5.48 nM. The ReqCk/ReqAb ratio in assay [2] came to 0.153.

The values are drawn from US20160046707A1.
